In article PMC5425150:

Target: type II receptors on the cell surface of INA6 cells (human (endogenous in INA6))

BMP2-L51PL100KN102D (ligand)
concentration for 50% rescue (IC50) from inhibition of INA6 cell proliferation induced by 10 nM Activin A, WST-1; competes with Activin A for the type II receptors: 62.5 nM

B1: Recombinant human BMP2 (wildtype) (ligand)
chain: QAKHKQRKRLKSSCKRHPLYVDFSDVGWNDWIVAPPGYHAFYCHGECPFPLADHLNSTNHAIVQTLVNSVNSKIPKACCVPTELSAISMLYLDENEKVVLKNYQDMVVEGCGCR
concentration for 50% rescue (IC50) from inhibition of INA6 cell proliferation induced by 10 nM Activin A, WST-1; competes with Activin A for the type II receptors: 250 nM
